These results are taken from the DeepSol protein solubility set.

The data set is described as follows: soluble on expression in E. coli; label from the status in PepcDB or PDB records.
As for “MGSDKIHHHHHHMTFSAKNAAGETTGGVFTVALDRCAVYGRASSGAVCGSLLESAGWRPAAGSRVLVKPNLLRAQPDGLCCTHPQVVRAAVEYALDCGAVVTVGDSPAFGSAERVAQAVGLTDALQGLGVRVVTLDDPVDCRLPSGLRVGVARAALEADALLNVPRVKVHCQMRLTLAVKNLFGCVCGVRKAVAHTRHGDRGNRFEALIVELAERLPPSGVLLDGITAMHRTGPSGGDPYLLGLLGASCSSVAMDTAVGTLLGAAPETIPLWAELRRRKQPAAFVENLHFPVLFPADFSPQGVTPDGFCIPQVLKPVSFRPATLLRSLVRRMWHRYGPSA”, the “soluble on expression in E. coli” value is listed as “not soluble”.
The result for “MGSDKIHHHHHHMTESQALIWDETFPSLLLKGQGTTSFLHGQTTADVFAQKELDRIFMCCWLSTKGALKAVLEIRLSDDMAEIVIICGEINSIRDGFESVIFPADKVKLEVIDPIRRRQEINNNSSWKDSDFSWIDDNTFSIDGITKYKKATKEELEGWKIRQGIPSFDKEMNGETNPYELGLADTINLDKGCYLGQEAMAKFFRSKSLKYQLRYWEAYGENDNFQIGKKFFNTNKNEGYKKNVGVVTSSIRVDDNFFNGLALIKKTFLDHDFCFSENGDSITIKKPISFTNPF” reads “not soluble”.
Consider “MNHKAFAKFPSSASISPNPFTVSIPDEQLDDLKTLVRLSKIAPPTYESLQADGRFGITSEWLTTMREKWLSEFDWRPFEARLNSFPQFTTEIEGLTIHFAALFSEREDAVPIALLHGWPGSFVEFYPILQLFREEYTPETLPFHLVVPSLPGYTFSSGPPLDKDFGLMDNARVVDQLMKDLGFGSGYIIQGGDIGSFVGRLLGVGFDACKAVHLNFCNMSAPPEGPSIESLSAAEKEGIARMEKFMTDGYAYAMEHSTRPSTIGHVLSSSPIALLAWIGEKYLQWVDKPLPSETILEMVSLYWLTESFPRAIHTYREWVPTASAPNGATPYQKELYIHKPFGFSFFPKDLVPVPRSWIATTGNLVFFRDHAEGGHFAALERPRELKTDLTAFVEQVWQKGRSHHHHHH”, for which the “soluble on expression in E. coli” value is given as “soluble”.
On to “MGSDKIHHHHHHMNPQLLRVTNRIIERSRETRSAYLARIEQAKTSTVHRSQLACGNLAHGFAACQPEDKASLKSMLRNNIAIITSYNDMLSAHQPYEHYPEIIRKALHEANAVGQVAGGVPAMCDGVTQGQDGMELSLLSREVIAMSAAVGLSHNMFDGALFLGVCDKIVPGLTMAALSFGHLPAVFVPSGPMASGLPNKEKVRIRQLYAEGKVDRMALLESEAASYHAPGTCTFYGTANTNQMVVEFMGMQLPGSSFVHPDSPLRDALTAAAARQVTRMTGNGNEWMPIGKMIDEKVVVNGIVALLATGGSTNHTMHLVAMARAAGIQINWDDFSDLSDVVPLMARLYPNGPADINHFQAAGGVPVLVRELLKAGLLHEDVNTVAGFGLSRYTLEPWLNNGELDWREGAEKSLDSNVIASFEQPFSHHGGTKVLSGNLGRAVMKTSAVPVENQVIEAPAVVFESQHDVMPAFEAGLLDRDCVVVVRHQGPKANGMPELHKLMPPLGVLLDRCFKIALVTDGRLSGASGKVPSAIHVTPEAYDGGLLAKVRDGDIIRVNGQTGELTLLVDEAELAAREPHIPDLSASRVGTGRELFSALREKLSGAEQGATCITF”, for which the “soluble on expression in E. coli” value was “not soluble”.
The result for “MREIINKLNPIIIDKADKKFGVSRILKKYDGKPVYIKDVNGFEVVGNLCSRETLSKIFNVKKEDFIFFMLDAMEKEKEGKLKINNKLKEKYIVEIPENIKNWPIPIYYEKDAGAYITSGVVVVYDKDYGYNLSIHRILVKDDYLVIRMVEQRHLHFLYNKALKEKGYLDVAIVIGVHPAVLLAGSTSADITFDELKFAAALLGGEIGVFELDNGLLVPEAEFIIEGKILPEVDDEGPFVDITGTYDIVRKQPIIKIEKLYRKEKPIFHALLPGGIEHKTLMGMPQEPRILKGVRNTVPTVKNIVLTEGGCCWLHAVVQIEKRTEGDGKNAILAAFASHPSLKHVIVVDDDINIFDINDVEYAIATRVQGDKDIVIISGAKGSSLDPSSDLKNKLTAKVGVDATMSLIKGREHFERAKIPDKLEHHHHHH” reads “soluble”; that for “MVPTPKPVVDRMLELADVDETDVLYDLGSGDGRIVIRAARTHGARGVGIEIDPDLVKKARKNAKEAGVADLVEFRQGDLFEADISEATVVTLYLLPSVNQKLRPILFEQLSPGTPVVSHDFDMGRWAPDRTVDLEGDTVYRWTIPLEHHHHHH”, “not soluble”; that for “MPIQRREFIAAIGTGALATTAGCAQSGEGSGQTEAETEAESGGGGQPGVAGETLTLTTTTSTYDTGLLDEIHPDFEDMYGVSVDAVAQGTGAALESARNGDSDIVMVHARGLEDDFMRNGYGINRRDLMFNDFVIVGPEDDPAGIQGMGSATEALTTIAESESQFVSRGDNSGTHTKELNLWEAAGTEPGGNWYQETGTGMGEALNIANQQGAYTLSDRGTYISQRSEIDLVILVQGPIEDGPEILANPYGIMAVNPGVHDNANYDLAMAYIGWITSPGTQDAISNYQVNGEQLFFPEAVSEDPNFQQYVPEGWSSDAGE”, “not soluble”.
The result for “MKVNIDPTAPTFATYRRDMRAEQMAEDYPVVSIDSDALDAARMLAEHRLPGLLVTAGAGKQYAVLPASQVVRFIVPRYVQDDPLLAGVLNESTADRCAERLSGKKVRDVLPDHLVEVPPANADDTIIEVAAVMARLRSPLLAVVKDGSLLGVVTASRLLAAALKT” reads “soluble”.
The result for “MWPSNRGPTLFQYSIRCLGFVAFIGVVRCHCPHMMGVKPPGPPSGPSPPGKFPDGDEGWDYDETAAPGIVPEPHFIQSTYIYRSPNVQEKTFSSRVVNVLKDIRTRLAKSARLTLENENIECSSPTDHYRCQEYPASGTWNYLIVEDQQKGAVTYTFDRKFNEKNDGTIEMALLDAFSRHSPSSLIAFASSEAEKEVGYIRALTVQEMDSLSGKRSHQKISMEKFGPNELILLEPALLEVRTGANLKLNSDSLRRIDSTKEFDKLLEEFRNVFILFWNSNRMVSLHTFNLWSRVADKIKISEDTLLAHVPCHDNADFCQGLNSEDYHTVVSYRNGQNTGKTENIGDVEFYENWVELSLSGAIQRLPNESKLSEFKKGIVGGKKRSSVTIGVFPSDQDTSFQHFQIAAEKLSGKYYVAYFINENSKPAITTYRHAEKQKRTDYSGKFDPATLMEFITKSSIPSIIGISNGFTTDLLFHQKRPILIQIGGAGEFEPFSKLSARQDARKTYIFTKIDGESEMIKKTKKALGVGENESIIVFLNKDRVHRIPISKPKCPDHLQKILQMIITSEADQVLSTKEPHPLRYLQVEKVNEVFGFEETLVLPDHTLFLDSDPFSRHPPITEGGGGGCPFMQGGGAPTESSQHSEL” reads “not soluble”; that for “MSSDEQKPEVNGYWTSVKNFSSSAATSINNATTSAWNSEFAASTSATVKDFSTSATKSIGEAATSAWNSETASTATSAISEAAKNARSWYDSSSEENEELEPSGHGFRGGIAALSRNASHYVISTVGRSSNILNIFDKTNKSSLGNPRWWIRFDRPHGNVDFHHININKAVTGLKDPHIPLTPTTAKTIGVLGKVAEKANDVAPLLTTAAMIYEAYRVGQEVHKDMNHGTTRNTIKTLAATSGTYSSGSIGAYAGSVIGTSIFPGLGTIFGAVVGGIVGGHFGGHYSHVATENALNHVKWDVVTFVCDGCDEEYTWKKYQEIEGTCCTRFNNKRQDSVDYWFKKLETNHDF”, “not soluble”; that for “MNKIFLTAAALVLGACGFHLKGADGISPPLTYRSWHIEGGQALQFPLETALYQASGRVDDAAGAQMTLRIDSVSQNKETYTVTRAAVINEYLLILTVEAQVLKRGEPVGKPMTVSVRRILDYADNEILGKQEEEETLWAEMRQDVAEQIVRRLTFLKAELEHHHHHH”, “soluble”.
With “MHKTIAVLLGIVCFLPVMAKAGGAETDATDASDVKTLFFNHDDRVPVADPTQSPWDAIGQLETASGNLCTATLISPHIALTAGHCLLTPPKGKPDKAVALRFVARKGVWRYEIHGIEGRVEPSLGRRLKADGDGWIVPPAAASWDFGLVILRYPPSGITPVPLFTGDKAALTAALKAADRKVTQSGYPEDHLNALYSHQDCVVTGWAQNAVLSHQCDTLPGDSGSPLLLHTDSGWQLIGVQSSAPAAKDRWRADNRAISVTGFRDKLKALAQD”, the “soluble on expression in E. coli” value is “not soluble”.
Regarding “LTELYDAIPASIIIIDERMRLIGWNRFSRDTINGLSDNEMPGINPMKRVHPDDLPEMIRKMRNVIDLDIELSAEFRMYHKSGPPYKWAMCRGKRTIIEGKTCVVAVVTEIT”, the “soluble on expression in E. coli” value was “not soluble”.
Take “MGSDKIHHHHHHMIKITQVRDGGNHVTQSTLTLDAWVERMKEEVKTCPVTMFRSQLRHVLPGDHCEAADKLPKMMPAAEFRKTEGGQCMKAYNGLVELTVGPLAGRAEVEQVKREAWKLPQTRCAFMGASGHSVKILVAFTRPDNTLPLTRAEAEAFHAHAYIMAVKCYQPQLSFDIRPKEPFLEQYSRLSYDPDVLYRPDSVQFYLSQPMGMPDEMALHTEPAVSGQRPLERALGSYETADALSMLFEAALRQAYIDLDKPDPADEKSSYSWDTLLSQLALNCFRSGIPEEAVVSRARFRHFVRKPLELVRQVVRNVYSRRQDFGSKCALSREQQLSVLIAEFMKRRYEFRFNVQTGEAEFRERHSFCFRFQPVDKRALNSIALDAQAEGIPLWDRDISRYVYSNRVPVYNPLEDFLFNLPEWDGRDRIRPLAQTVPCDNPHWPELFHRWFLNMVAHWRGMDKRYANSVSPLLVGAQGTRKSTLFDFLKLYLA”: the “soluble on expression in E. coli” value is “not soluble”.
For “GPGSMSSSNAQAELGPGGSTHSIELGRLIFQGAESKVYCCSFYGALALCKHRFVKRYRDPSLDERLRTQRTRREARALERCVKKGIRAPRLLGADYINTFLVMSYEAGPTVKEALDIEHAAYMQQVSKGKSTSAQQQQPQTTPSPSALGNAAPSPVTAALLQSIGVVVARLHNANIVHGDLTTSNFICTCDGLEAAAPGADGADALASSSPVLPTAEDIVVLDFGLISEKYSTEERAVDLYVLERAIASTHPYLSSFASDIILEGYRSAADPKKGEEALRRLEAVRARGRKRTMIG” the value was “not soluble”.
Take “MEGVELKEEWQDEDFPIPLPEDDSIEADILAITGPEDQPGSLEVNGNKVRKKLMAPDISLTLDPSDGSVLSDDLDESGEIDLDGLDTPSENSNEFEWEDDLPKPKTTEVIRKGSITEYTAAEEKEDGRRWRMFRIGEQDHRVDMKAIEPYKKVISHGGYYGDGLNAIVVFAVCFMPESSQPNYRYLMDNLFKYVIGTLELLVAENYMIVYLNGATTRRKMPSLGWLRKCYQQIDRRLRKNLKSLIIVHPSWFIRTLLAVTRPFISSKFSQKIRYVFNLAELAELVPMEYVGIPECIKQVDQELNGKQDEPKNEQLEHHHHHH”: the “soluble on expression in E. coli” value is given as “soluble”.
For “MGSDKIHHHHHHMALIHEIITSENIKGFYNAKNENVENTLGEKAFPPKQQLGLKLSFIKGAAGKPVTLKAAAFDTKVPLRDRMAVELIDEEMPFFKEAMLVKEADRQQLNMLAQTKNNELIDTILASIYNDQATLIAGAKARLEAMRMEVLSKGKIHIQSNGVMKDIDYGLAEDQTTKPDAKWDSAGTATPLKDIEKAIEKMAERGFVPEAIIMNSKTFSLIKNAESTLDVVKPMAPNGAAVTKRDLNTYLEDELQIKVILKDGMFVGDDGESRKYFPDGFATLVPNGNLGYTVFGTTPEQSDLLGGEATDANVSIVETGIAITTTKTTDPVNVQTKVSMIALPSFERLEEVHIINGLQDA” the value was “not soluble”; for “MGSDKIHHHHHHMDIELREKIAGEITLSDSPAETIRKWREEFKVSQLELSNFLNQSPSVISDYETGRRKFPSIASVRKIVDALITIDERRGGYVIKKYKSGVPSDALIDIKDYDRDVPLEKAIRAMNGKNVSHVSVERNIRGYTIVDGVKAILAFSYYEYSKLYGWSSERAIFFTDVKFGRSPMIAIRVHPLKPAAVVYIQPDNVDDLAIKLADIENIPLLITEMSPEAVSHVMSQLR”, “not soluble”.
